Assay [1] deals with T1, cynomolgus IL-1beta (cynomolgus, UniProt P79182 117-268). The experiment in a line: SPR (BIAcore); antibody captured by anti-Fc, IL-1beta injected. On the technique in general: Surface plasmon resonance follows binding to a sensor surface in real time, without labels.
Description: All experiments were performed at 25° C. using HBS-P (10 mM His, 140 mM NaCl, 0.05% Tween 20 pH 7.4) as running and dilution buffer. Anti-human or anti-mouse Fc antibodies were immobilized on a Series S CM5 Sensor Chip (GE Healthcare) using standard amine coupling chemistry. […] The dissociation phase was monitored for 600 sec by washing with running buffer. […] The surface was regenerated by injecting 3 M MgCl2 (for anti-human Fc antibody) or 10 mM Glycine pH 1.5 (for anti-mouse Fc antibody) for 60 sec at a flow rate of 5 μl/min. Bulk refractive index differences were corrected by subtracting the response obtained from a mock surface. Blank injections were subtracted (double referencing). The derived curves were fitted to a 1:1 Langmuir binding model using the BIAevaluation software.
Assay [2] has as its target T2, human IL-1beta (human, UniProt P01584 117-269). The description is as above.
Assay [3] addresses T1, cynomolgus IL-1beta. Described as above. This is another data set of the same source.
In assay [4] the target is T2, human IL-1beta. The assay is described as above. This is another data set of the same source.
In assay [5] the target is T3, human ANG2-RBD-mouse Fc-region fusion (human, UniProt O15123 275-496, limits assumed).
T3 construct: domain: RBD; also called human ANG2-RBD-murine Fc-region fusion; not shown: mouse Fc-region
T3 sequence (looked up): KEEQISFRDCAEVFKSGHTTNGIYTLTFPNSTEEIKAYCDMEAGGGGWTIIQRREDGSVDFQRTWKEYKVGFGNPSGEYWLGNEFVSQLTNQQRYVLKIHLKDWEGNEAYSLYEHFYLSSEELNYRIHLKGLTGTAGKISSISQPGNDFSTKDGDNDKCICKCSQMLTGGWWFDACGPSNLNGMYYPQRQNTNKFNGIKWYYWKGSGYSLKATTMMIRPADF
In words: SPR (BIAcore T200); ANG2-RBD-mouse Fc captured, antibody injected (Example 52).

Assay [6] deals with T4, human PDGF-BB (human, UniProt P01127 82-190). The experiment in a line: cell-based or functional assay.
T4 sequence (P01127 82-190 limits assumed): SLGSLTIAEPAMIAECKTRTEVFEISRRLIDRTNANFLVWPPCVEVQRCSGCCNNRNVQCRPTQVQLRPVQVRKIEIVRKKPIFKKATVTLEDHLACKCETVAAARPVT
The target of assay [7] is T4, human PDGF-BB. The experiment in a line: SPR (BIAcore T200); PDGF-BB coupled on CM3 chip, antibody injected (Example 52). Further details: t½: unit not given here.
For assay [8], the target named is T4, human PDGF-BB. In words: cell-based or functional assay. The source holds these as a separate data set.
Another assay concerns the target T5, ANG2 (UniProt O15123 68-496, limits assumed).
T5 sequence (looked up): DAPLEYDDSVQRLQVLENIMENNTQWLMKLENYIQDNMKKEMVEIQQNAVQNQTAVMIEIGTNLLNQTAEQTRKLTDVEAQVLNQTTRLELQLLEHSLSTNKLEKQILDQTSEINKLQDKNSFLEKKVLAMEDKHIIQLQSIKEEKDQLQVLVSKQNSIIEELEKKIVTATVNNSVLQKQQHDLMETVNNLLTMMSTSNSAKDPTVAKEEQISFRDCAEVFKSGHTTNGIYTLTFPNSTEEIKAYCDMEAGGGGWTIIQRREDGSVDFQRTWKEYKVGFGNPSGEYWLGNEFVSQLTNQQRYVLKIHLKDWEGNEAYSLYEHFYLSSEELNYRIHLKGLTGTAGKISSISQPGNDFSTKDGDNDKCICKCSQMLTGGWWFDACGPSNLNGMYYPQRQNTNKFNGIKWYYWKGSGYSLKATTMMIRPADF
The experiment in a line: cell-based or functional assay.

Assay [9] addresses T2, human IL-1beta. The experiment in a line: cell-based or functional assay.
Assay [10] concerns the target T2, human IL-1beta. The experiment in a line: cell-based or functional assay. The source holds these as a separate data set.
For assay [11], the target named is T2, human IL-1beta. The experiment in a line: cell-based or functional assay. This is another data set of the same source.
Assay [12] deals with T2, human IL-1beta. In words: cell-based or functional assay. This is another data set of the same source.
Assay [13] addresses T2, human IL-1beta. The experiment in a line: SPR (BIAcore T200); antibody captured by anti-human Fc, human IL-1beta injected (Example 52). Details: t 1/2: unit not given here.
For assay [14], the target named is T2, human IL-1beta. In words: cell-based or functional assay. The source holds these as a separate data set.
Assay [15] addresses T2, human IL-1beta. The experiment in a line: SPR (BIAcore); Fab captured by anti-human Fab, IL-1beta injected (Example 55).
Description: All experiments were performed at 25° C. using HBS-P (10 mM His, 140 mM NaCl, 0.05% Tween 20 pH 7.4) as running and dilution buffer. Anti-human Fc or anti-human Fab antibodies were immobilized on a Series S CM5 Sensor Chip (GE Healthcare) using standard amine coupling chemistry. […] The dissociation phase was monitored for 600 sec by washing with running buffer. The surface was regenerated by injecting 3 M MgCl2 (for anti-human Fc antibody) or 10 mM Glycine pH 1.5 (for anti-mouse Fc antibody) for 60 sec at a flow rate of 5 μl/min. Bulk refractive index differences were corrected by subtracting the response obtained from a mock surface. Blank injections were subtracted (double referencing). The derived curves were fitted to a 1:1 Langmuir binding model using the BIAevaluation software.

Like-named read-outs stand apart in the source and are kept apart here. Where only a bound is given, the exact number is not on record here.

As a reminder, the Kd is a measure of binding affinity in units of concentration. Broadly, the koff is the rate constant with which the complex falls apart. As usually defined, the kon is a measure of how fast the partners come together.

B1: H34 + C52aS mutations (antibody, V domains shown)
VH: EVQLQQSGPELVKTGASVKISCKASGYSFTGYYMHWVKQSHGKSLEWIGYISSYNAFTTYNQRFRGKATFTVDTSSSTAYMQFNSLTSEDSAVYYCVRSDYYGTSLYWGQGTTLTVSS
VL: QIVLTQSPAIMSASLGEEITLTCSASSSVSYMHWSQQKSGSSPKLLIYSTSNLASGVPSRFSGSGSGTFYSLTISSVEAEDAADYYCHQWSNYYTFGGGTKLEIK
On to B1, for which the Kd with cynomolgus IL-1beta [1] amounted to 0.51 nM; with human IL-1beta [2], 0.4 nM; with cynomolgus IL-1beta [3], 0.51 nM; with human IL-1beta [4], 0.4 nM. Moreover, the koff in the assay with cynomolgus IL-1beta [1] is 0.000728 s⁻¹; with human IL-1beta [2], 0.000645 s⁻¹; in the assay with cynomolgus IL-1beta [3] it was 0.000728 s⁻¹; in the assay with human IL-1beta [4] it was 0.000645 s⁻¹. Further, the kon in the assay with cynomolgus IL-1beta [1] came out at 1.43e+06 M⁻¹ s⁻¹; in the assay with human IL-1beta [2], 1.6e+06 M⁻¹ s⁻¹; with cynomolgus IL-1beta [3] it was 1.43e+06 M⁻¹ s⁻¹; with human IL-1beta [4] it was 1.6e+06 M⁻¹ s⁻¹.

B2: antibody 0144 (bispecific antibody, human IgG1, kappa, L234A L235A)
chain 1: SYVLTQPPSVSVAPGQTARITCGGNNIGSKSVHWYQQKPGQAPVLVVYDTSDRPSGIPERFSGSNSGNTATLTISRVEAGDEADYYCQVWDSSSDHWVFGGGTKLTVLSSASTKGPSVFPLAPSSKSTSGGTAALGCLVKDYFPEPVTVSWNSGALTSGVHTFPAVLQSSGLYSLSSVVTVPSSSLGTQTYICNVNHKPSNTKVDKKVEPKSCDKTHTCPPCPAPEAAGGPSVFLFPPKPKDTLMASRTPEVTCVVVDVSHEDPEVKFNWYVDGVEVHNAKTKPREEQYNSTYRVVSVLTVLAQDWLNGKEYKCKVSNKALGAPIEKTISKAKGQPREPQVYTLPPCRDELTKNQVSLWCLVKGFYPSDIAVEWESNGQPENNYKTTPPVLDSDGSFFLYSKLTVDKSRWQQGNVFSCSVMHEALHNAYTQKSLSLSPGK
chain 2: not shown
chain 3: not shown
chain 4: not shown
notes: also called anti-PDGF-B/ANG2 antibody; clone 0144-0004
In assay [5], B2 registered a Kd of 17 nM, a koff of 0.00155 s⁻¹, a kon of 90600 M⁻¹ s⁻¹ and a t½ of 7.43 min. Further, in the assay with human PDGF-BB [6], the “IC50 Proliferation 3T3” value turned out to be 0.02 nM and the “IC50 Proliferation human pericytes” value stood at 0.03 nM. Besides, in the assay with human PDGF-BB [7], the Kd was found to be 3 nM, the koff amounted to 0.000215 s⁻¹, the kon was 83100 M⁻¹ s⁻¹ and the t½ is 53. Besides, in the assay with human PDGF-BB [8], the “IC50 Migration-Inhibition human pericytes” value is 0.06 nM and the “IC50 Phospho-Inhibition human pericytes” value came out at 0.055 nM. Also, the “ANG2 specific pTie2-ELISA, activity against the anti-ANG2/VEGF antibody reported in WO 2014/09465” value with ANG2 is 6 fold.

B3: antibody 0085 FAB (Fab, V domains shown)
VH: EVQLVESGGGLVQPGGSLRLSCAASGFTFSSYWMSWVRQAPEKGLEWVSTISDGGGLTYYADSVKGRFTISRDNAKNSLYLQMNSLRAEDTAVYYCAESGGYTDWLFGYWGQGTLVTVSS
VL: not shown
Consider B3, for which the “IC50 Proliferation human pericytes” value with human PDGF-BB [6] came out at 0.012 nM. Also, the “IC50 Migration-Inhibition human pericytes” value with human PDGF-BB [8] is 0.27 nM.

B4: huH34-2 (antibody, V domains shown)
VH: QVQLVQSGAEVKKPGASVKVSCKASGYTFTGYYMHWVRQAPGQGLEWIGYISSYNAFTTYNQKFRGRATFTVDTSISTAYMELSRLRSDDTAVYYCVRSDYYGTSLYWGQGTLVTVSS
VL: EIVLTQSPATLSLSPGERATLSCRASSSVSYMHWSQQKPGQAPRLLIYSTSNLASGIPARFSGSGSGTDFTLTISSLEPEDFAVYYCHQWSNYYTFGQGTKLEIK
notes: Humanized antibody expressed in HEK cells; also called huH34-2 bivalent; humanized version of H34
For the molecule B4, the “IC50, inhibition of ICAM-1 expression upon IL-1beta stimulation of HUVEC cells” value in the assay with human IL-1beta [9] worked out at 0.3 nM. In the assay with cynomolgus IL-1beta [1], this molecule came in with a Kd of 0.05 nM, a koff of 0.000118 s⁻¹ and a kon of 2.2e+06 M⁻¹ s⁻¹. Further, in the assay with human IL-1beta [2], binding was put at a Kd of 0.06 nM, the koff was 0.00011 s⁻¹ and the kon was 1.93e+06 M⁻¹ s⁻¹. Also, the “IC50, inhibition of proliferation of D10 cells” value in the assay with human IL-1beta [10] is 0.83 nM. The “EC50, reduction of IL-6 expression upon IL-1beta stimulation of A549 cells” value (“EC50, reduction” below) with human IL-1beta [11] amounted to 0.11 nM. For the same molecule, the “IC50, inhibition of ICAM-1 expression upon IL-1beta stimulation of A549 cells” value (“IC50, inhibition … of A549 cells” for short) with human IL-1beta [12] came out at 0.23 nM. Further, in the assay with human IL-1beta [13], the Kd was found to be 0.05 nM, the off-rate (koff) came out at 0.000115 s⁻¹, the kon is 2.43e+06 M⁻¹ s⁻¹ and the “t 1/2” value is 101.

B5: antibody 0032 (bispecific antibody, V domains shown)
VH 1: EVQLVESGGGLVQPGGSLRLSCAASGYDFTHYGMNWVRQAPGKGLEWVGWINTYTGEPTYAADFKRRFTFSLDTSKSTAYLQMNSLRAEDTAVYYCAKYPYYYGTSHWYFDVWGQGTLVTVSS
VL 1: DIQLTQSPSSLSASVGDRVTITCSASQDISNYLNWYQQKPGKAPKVLIYFTSSLHSGVPSRFSGSGSGTDFTLTISSLQPEDFATYYCQQYSTVPWTFGQGTKVEIK
VH 2: QVQLVQSGAEVKKPGASVKVSCKASGYTFTGYYMHWVRQAPGQGLEWIGYISSYNAFTTYNQKFRGRATFTVDTSISTAYMELSRLRSDDTAVYYCVRSDYYGTSLYWGQGTLVTVSS
VL 2: EIVLTQSPATLSLSPGERATLSCRASSSVSYMHWSQQKPGQAPRLLIYSTSNLASGIPARFSGSGSGTDFTLTISSLEPEDFAVYYCHQWSNYYTFGQGTKLEIK
notes: CrossMab; only variable domains are tied to it; also called anti-IL-1beta/VEGF antibody
In the case of B5, in the assay with human IL-1beta [13], the Kd worked out at 0.12 nM, the koff stood at 0.000305 s⁻¹, the kon was 2.49e+06 M⁻¹ s⁻¹ and the “t 1/2” value stood at 38. For the same molecule, the “EC50, reduction” value with human IL-1beta [14] amounted to 0.0387 µg/mL.

B6: huH34-2 Fab (Fab, V domains shown)
VH: QVQLVQSGAEVKKPGASVKVSCKASGYTFTGYYMHWVRQAPGQGLEWIGYISSYNAFTTYNQKFRGRATFTVDTSISTAYMELSRLRSDDTAVYYCVRSDYYGTSLYWGQGTLVTVSS
VL: EIVLTQSPATLSLSPGERATLSCRASSSVSYMHWSQQKPGQAPRLLIYSTSNLASGIPARFSGSGSGTDFTLTISSLEPEDFAVYYCHQWSNYYTFGQGTKLEIK
notes: also called huH34-2 Fab-fragment
For the molecule B6, in the assay with human IL-1beta [15], the equilibrium dissociation constant (Kd) was 0.06 nM, the koff was determined as 0.000111 s⁻¹ and the association rate constant (kon) stood at 1.81e+06 M⁻¹ s⁻¹.

B7: huH34-3 (antibody, V domains shown)
VH: QVQLVQSGAEVKKPGASVKVSCKASGYTFTGYYMHWVRQAPGQGLEWIGYISSYSAFTTYNQKFRGRATFTVDTSISTAYMELSRLRSDDTAVYYCVRSDYYGTSLYWGQGTLVTVSS
VL: EIVLTQSPATLSLSPGERATLSCRASSSVSYMHWSQQKPGQAPRLLIYSTSNLASGIPARFSGSGSGTDFTLTISSLEPEDFAVYYCHQWSNYYTFGQGTKLEIK
notes: VH = 11 and VL = 16 read by analogy with huH34-2
Turning to B7, in the assay with cynomolgus IL-1beta [1], the Kd was determined as 0.22 nM, the koff was found to be 0.000491 s⁻¹ and the kon was 2.21e+06 M⁻¹ s⁻¹. Also, in the assay with human IL-1beta [2], the Kd was 0.15 nM, the koff came out at 0.000302 s⁻¹ and the kon came out at 1.97e+06 M⁻¹ s⁻¹. Also, in the assay with human IL-1beta [11], the “EC50, reduction” value was found to be 1.09 nM. In addition, the “IC50, inhibition … of A549 cells” value with human IL-1beta [12] is 2.23 nM.

B8: huH34-1 (antibody, V domains shown)
VH: QVQLVQSGAEVKKPGASVKVSCKASGYTFTGYYMHWVRQAPGQGLEWMGYISSYSGFTTYAQKFQGRVTMTRDTSISTAYMELSRLRSDDTAVYYCARSDYYGTSLYWGQGTLVTVSS
VL: EIVLTQSPATLSLSPGERATLSCRASSSVSYMHWSQQKPGQAPRLLIYSTSNLASGIPARFSGSGSGTDFTLTISSLEPEDFAVYYCHQWSNYYTFGQGTKLEIK
notes: VH = 01 and VL = 16 read by analogy with huH34-2 (VH 06, VL 16); Humanized
Regarding B8, in the assay with cynomolgus IL-1beta [1], the affinity, expressed as Kd, was 1.31 nM; the koff was found to be 0.00212 s⁻¹; the on-rate (kon) is 1.61e+06 M⁻¹ s⁻¹. In the assay with human IL-1beta [2], the Kd was found to be 1.02 nM, the koff amounted to 0.00151 s⁻¹ and the kon was 1.49e+06 M⁻¹ s⁻¹. For the same molecule, the “EC50, reduction” value with human IL-1beta [11] is 5.52 nM. In addition, the “IC50, inhibition … of A549 cells” value with human IL-1beta [12] was greater than 7 nM.

For the origin of these results see patent US20170240629A1 (Hoffmann-La Roche, published 2017).
